The source of these data is patent US20050048639.

One series deals with T1, p72 (1-600).
T1 chain: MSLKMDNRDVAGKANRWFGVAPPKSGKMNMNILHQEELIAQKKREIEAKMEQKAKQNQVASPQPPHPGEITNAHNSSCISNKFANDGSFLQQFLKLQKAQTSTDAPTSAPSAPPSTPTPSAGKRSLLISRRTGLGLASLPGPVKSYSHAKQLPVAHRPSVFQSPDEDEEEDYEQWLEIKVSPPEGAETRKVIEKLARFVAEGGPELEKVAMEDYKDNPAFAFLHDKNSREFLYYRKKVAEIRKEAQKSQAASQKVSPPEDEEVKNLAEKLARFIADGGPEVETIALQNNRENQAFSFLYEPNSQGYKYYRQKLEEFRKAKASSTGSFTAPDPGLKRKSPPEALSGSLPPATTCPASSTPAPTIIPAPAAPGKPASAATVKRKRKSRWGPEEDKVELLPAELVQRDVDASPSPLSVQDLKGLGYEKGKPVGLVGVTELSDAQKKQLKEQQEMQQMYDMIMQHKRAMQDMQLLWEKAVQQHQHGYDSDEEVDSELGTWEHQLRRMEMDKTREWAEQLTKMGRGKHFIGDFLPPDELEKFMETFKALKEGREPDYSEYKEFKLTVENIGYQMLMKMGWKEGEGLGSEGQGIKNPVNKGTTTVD

In a further series the target is T2, p72 (D600E).
T2 chain: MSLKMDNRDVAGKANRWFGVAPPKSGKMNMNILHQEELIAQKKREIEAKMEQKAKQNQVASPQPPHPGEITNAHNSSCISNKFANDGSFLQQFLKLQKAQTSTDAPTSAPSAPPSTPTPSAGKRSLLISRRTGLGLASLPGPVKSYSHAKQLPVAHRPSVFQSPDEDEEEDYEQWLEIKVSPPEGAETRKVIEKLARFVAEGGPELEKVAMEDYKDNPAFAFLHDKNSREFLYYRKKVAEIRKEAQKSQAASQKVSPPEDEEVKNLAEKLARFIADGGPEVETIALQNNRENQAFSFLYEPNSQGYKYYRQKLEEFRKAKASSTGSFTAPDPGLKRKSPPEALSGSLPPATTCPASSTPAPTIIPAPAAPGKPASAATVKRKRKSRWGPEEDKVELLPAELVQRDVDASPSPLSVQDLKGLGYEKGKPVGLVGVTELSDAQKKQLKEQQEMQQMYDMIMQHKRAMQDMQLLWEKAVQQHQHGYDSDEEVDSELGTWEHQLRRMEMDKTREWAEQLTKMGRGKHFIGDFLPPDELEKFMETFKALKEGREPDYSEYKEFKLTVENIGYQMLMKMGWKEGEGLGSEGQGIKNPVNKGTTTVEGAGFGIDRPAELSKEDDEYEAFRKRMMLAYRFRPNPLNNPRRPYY

A further series concerns the target T3, p72 (Cari).
T3 chain: T2 chain with E600D

Positions count from the first letter of the chain named.

B1: recombinant active caspase-8 (protein)
chain 1: EELCGVMTISDSPREQDSESQTLDKVYQMKSKPRGYCLIINNHNFAKAREKVPKLHSIRDRNGTHLDAGALTTTFEELHFEIKPHHDCTVEQIYEILKIYQLMDHSNMDCFICCILSHGDKGIIYGTDGQEAPIYELTSQFTGLKCPSLAGKPKVFFI
chain 2: GIPVETDSEEQPYLEMDLSSPQTRYIPDEADFLLGMATVNNCVSYRNPAEGTWYIQSLCQSLRERCPRGDDILTILTEVNYEVSNKDDKKNMGKQ
B1: in the series with p72 (1-600), the “cleavage of in vitro translated 35S-labeled Cari 1-600 by recombinant active caspase-8 (SDS-PAGE, phospho-imaging)” value is “co-migrates with the 68 kDa fragment produced after cleavage of the wild type Cari and is not further cleaved by addition of caspase-8”. The “cleavage of in vitro translated 35S-labeled Cari D600E by recombinant active caspase-8 (SDS-PAGE, phospho-imaging)” value with p72 (D600E) is “the same protein profile of Cari D600E mutant is observed in the presence or the absence of caspase-8”. In addition, the “cleavage of in vitro translated 35S-labeled Cari by recombinant active caspase-8 (SDS-PAGE, phospho-imaging)” value with p72 (Cari) is “This band disappears after addition of activated caspase-8 for 1 hour and a new smaller fragment corresponding to 68 kDa appears (lane 4)”.
